Positions count from the first letter of the chain named.
T1: LZTR1 R810W-FLAG (human, UniProt Q8N653 1-840)
T1 construct: Stably expressed in U87 cells by lentivirus; also called LZTR1-FLAG-R810W; LZTR1 RW; not shown: FLAG tag
T1 sequence (looked up): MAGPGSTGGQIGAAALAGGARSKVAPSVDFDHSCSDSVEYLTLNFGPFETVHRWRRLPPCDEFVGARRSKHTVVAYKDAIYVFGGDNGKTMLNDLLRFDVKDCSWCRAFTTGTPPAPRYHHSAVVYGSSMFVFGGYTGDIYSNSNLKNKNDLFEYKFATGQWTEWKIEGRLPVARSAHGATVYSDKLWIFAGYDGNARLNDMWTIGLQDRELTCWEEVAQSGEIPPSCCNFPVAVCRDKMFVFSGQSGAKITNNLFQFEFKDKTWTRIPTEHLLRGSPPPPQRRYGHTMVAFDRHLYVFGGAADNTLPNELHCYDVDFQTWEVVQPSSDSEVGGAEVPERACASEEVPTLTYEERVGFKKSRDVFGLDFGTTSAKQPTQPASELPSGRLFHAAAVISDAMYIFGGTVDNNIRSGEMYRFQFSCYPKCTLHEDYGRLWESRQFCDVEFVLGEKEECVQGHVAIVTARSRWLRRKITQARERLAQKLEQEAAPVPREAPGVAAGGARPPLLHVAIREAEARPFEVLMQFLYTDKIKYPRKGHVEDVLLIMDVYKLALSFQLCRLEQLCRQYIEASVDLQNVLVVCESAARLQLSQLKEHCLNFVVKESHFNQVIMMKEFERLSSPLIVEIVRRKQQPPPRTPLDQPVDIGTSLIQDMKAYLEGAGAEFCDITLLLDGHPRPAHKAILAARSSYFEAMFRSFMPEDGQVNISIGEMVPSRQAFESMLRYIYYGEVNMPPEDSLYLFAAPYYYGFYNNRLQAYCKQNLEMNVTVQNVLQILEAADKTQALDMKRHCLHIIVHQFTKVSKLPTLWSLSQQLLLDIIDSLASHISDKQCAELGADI

T2: LZTR1-FLAG (human, UniProt Q8N653 1-840)
T2 construct: Expressed in HEK 293T, HeLa or U87 cells; used as cell lysate; also called LZTR1 wild type-FLAG; LZTR1 WT; not shown: FLAG tag at the C-terminus
T2 sequence (looked up): T1 sequence (looked up) with W810R

B1: GBE1 (other, human, UniProt Q04446 2-702, looked up)
chain: AAPMTPAARPEDYEAALNAALADVPELARLLEIDPYLKPYAVDFQRRYKQFSQILKNIGENEGGIDKFSRGYESFGVHRCADGGLYCKEWAPGAEGVFLTGDFNGWNPFSYPYKKLDYGKWELYIPPKQNKSVLVPHGSKLKVVITSKSGEILYRISPWAKYVVREGDNVNYDWIHWDPEHSYEFKHSRPKKPRSLRIYESHVGISSHEGKVASYKHFTCNVLPRIKGLGYNCIQLMAIMEHAYYASFGYQITSFFAASSRYGTPEELQELVDTAHSMGIIVLLDVVHSHASKNSADGLNMFDGTDSCYFHSGPRGTHDLWDSRLFAYSSWEILRFLLSNIRWWLEEYRFDGFRFDGVTSMLYHHHGVGQGFSGDYSEYFGLQVDEDALTYLMLANHLVHTLCPDSITIAEDVSGMPALCSPISQGGGGFDYRLAMAIPDKWIQLLKEFKDEDWNMGDIVYTLTNRRYLEKCIAYAESHDQALVGDKSLAFWLMDAEMYTNMSVLTPFTPVIDRGIQLHKMIRLITHGLGGEGYLNFMGNEFGHPEWLDFPRKGNNESYHYARRQFHLTDDDLLRYKFLNNFDRDMNRLEERYGWLAAPQAYVSEKHEGNKIIAFERAGLLFIFNFHPSKSYTDYRVGTALPGKFKIVLDSDAAEYGGHQRLDHSTDFFSEAFEHNGRPYSLLVYIPSRVALILQNVDLPN
B2: IFI16 (other, human, UniProt Q16666 1-785, looked up)
chain: MGKKYKNIVLLKGLEVINDYHFRMVKSLLSNDLKLNLKMREEYDKIQIADLMEEKFRGDAGLGKLIKIFEDIPTLEDLAETLKKEKLKVKGPALSRKRKKEVDATSPAPSTSSTVKTEGAEATPGAQKRKKSTKEKAGPKGSKVSEEQTQPPSPAGAGMSTAMGRSPSPKTSLSAPPNSSSTENPKTVAKCQVTPRRNVLQKRPVIVKVLSTTKPFEYETPEMEKKIMFHATVATQTQFFHVKVLNTSLKEKFNGKKIIIISDYLEYDSLLEVNEESTVSEAGPNQTFEVPNKIINRAKETLKIDILHKQASGNIVYGVFMLHKKTVNQKTTIYEIQDDRGKMDVVGTGQCHNIPCEEGDKLQLFCFRLRKKNQMSKLISEMHSFIQIKKKTNPRNNDPKSMKLPQEQRQLPYPSEASTTFPESHLRTPQMPPTTPSSSFFTKKSEDTISKMNDFMRMQILKEGSHFPGPFMTSIGPAESHPHTPQMPPSTPSSSFLTTKSEDTISKMNDFMRMQILKEGSHFPGPFMTSIGPAESHPHTPQMPPSTPSSSFLTTLKPRLKTEPEEVSIEDSAQSDLKEVMVLNATESFVYEPKEQKKMFHATVATENEVFRVKVFNIDLKEKFTPKKIIAIANYVCRNGFLEVYPFTLVADVNADRNMEIPKGLIRSASVTPKINQLCSQTKGSFVNGVFEVHKKNVRGEFTYYEIQDNTGKMEVVVHGRLTTINCEEGDKLKLTCFELAPKSGNTGELRSVIHSHIKVIKTRKNKKDILNPDSSMETSPDFFF
B3: GLE1 (other, human, UniProt Q53GS7 1-698, looked up)
chain: MPSEGRCWETLKALRSSDKGRLCYYRDWLLRREDVLEECMSLPKLSSYSGWVVEHVLPHMQENQPLSETSPSSTSASALDQPSFVPKSPDASSAFSPASPATPNGTKGKDESQHTESMVLQSSRGIKVEGCVRMYELVHRMKGTEGLRLWQEEQERKVQALSEMASEQLKRFDEWKELKQHKEFQDLREVMEKSSREALGHQEKLKAEHRHRAKILNLKLREAEQQRVKQAEQERLRKEEGQIRLRALYALQEEMLQLSQQLDASEQHKALLKVDLAAFQTRGNQLCSLISGIIRASSESSYPTAESQAEAERALREMRDLLMNLGQEITRACEDKRRQDEEEAQVKLQEAQMQQGPEAHKEPPAPSQGPGGKQNEDLQVKVQDITMQWYQQLQDASMQCVLTFEGLTNSKDSQAKKIKMDLQKAATIPVSQISTIAGSKLKEIFDKIHSLLSGKPVQSGGRSVSVTLNPQGLDFVQYKLAEKFVKQGEEEVASHHEAAFPIAVVASGIWELHPRVGDLILAHLHKKCPYSVPFYPTFKEGMALEDYQRMLGYQVKDSKVEQQDNFLKRMSGMIRLYAAIIQLRWPYGNRQEIHPHGLNHGWRWLAQILNMEPLSDVTATLLFDFLEVCGNALMKQYQVQFWKMLILIKEDYFPRIEAITSSGQMGSFIRLKQFLEKCLQHKDIPVPKGFLTSSFWRS
B4: GUCY1B1 (other, human, UniProt Q02153 1-619, looked up)
chain: MYGFVNHALELLVIRNYGPEVWEDIKKEAQLDEEGQFLVRIIYDDSKTYDLVAAASKVLNLNAGEILQMFGKMFFVFCQESGYDTILRVLGSNVREFLQNLDALHDHLATIYPGMRAPSFRCTDAEKGKGLILHYYSEREGLQDIVIGIIKTVAQQIHGTEIDMKVIQQRNEECDHTQFLIEEKESKEEDFYEDLDRFEENGTQESRISPYTFCKAFPFHIIFDRDLVVTQCGNAIYRVLPQLQPGNCSLLSVFSLVRPHIDISFHGILSHINTVFVLRSKEGLLDVEKLECEDELTGTEISCLRLKGQMIYLPEADSILFLCSPSVMNLDDLTRRGLYLSDIPLHDATRDLVLLGEQFREEYKLTQELEILTDRLQLTLRALEDEKKKTDTLLYSVLPPSVANELRHKRPVPAKRYDNVTILFSGIVGFNAFCSKHASGEGAMKIVNLLNDLYTRFDTLTDSRKNPFVYKVETVGDKYMTVSGLPEPCIHHARSICHLALDMMEIAGQVQVDGESVQITIGIHTGEVVTGVIGQRMPRYCLFGNTVNLTSRTETTGEKGKINVSEYTYRCLMSPENSDPQFHLEHRGPVSMKGKKEPMQVWFLSRKNTGTEETKQDDD
B5: GMPPA (other, human, UniProt Q96IJ6 1-420, looked up)
chain: MLKAVILIGGPQKGTRFRPLSFEVPKPLFPVAGVPMIQHHIEACAQVPGMQEILLIGFYQPDEPLTQFLEAAQQEFNLPVRYLQEFAPLGTGGGLYHFRDQILAGSPEAFFVLNADVCSDFPLSAMLEAHRRQRHPFLLLGTTANRTQSLNYGCIVENPQTHEVLHYVEKPSTFISDIINCGIYLFSPEALKPLRDVFQRNQQDGQLEDSPGLWPGAGTIRLEQDVFSALAGQGQIYVHLTDGIWSQIKSAGSALYASRLYLSRYQDTHPERLAKHTPGGPWIRGNVYIHPTAKVAPSAVLGPNVSIGKGVTVGEGVRLRESIVLHGATLQEHTCVLHSIVGWGSTVGRWARVEGTPSDPNPNDPRARMDSESLFKDGKLLPAITILGCRVRIPAEVLILNSIVLPHKELSRSFTNQIIL
B6: GPD2 (other, human, UniProt P43304 43-727, looked up)
chain: ADCISEPVNREPPSREAQLLTLQNTSEFDILVIGGGATGSGCALDAVTRGLKTALVERDDFSSGTSSRSTKLIHGGVRYLQKAIMKLDIEQYRMVKEALHERANLLEIAPHLSAPLPIMLPVYKWWQLPYYWVGIKLYDLVAGSNCLKSSYVLSKSRALEHFPMLQKDKLVGAIVYYDGQHNDARMNLAIALTAARYGAATANYMEVVSLLKKTDPQTGKVRVSGARCKDVLTGQEFDVRAKCVINATGPFTDSVRKMDDKDAAAICQPSAGVHIVMPGYYSPESMGLLDPATSDGRVIFFLPWQKMTIAGTTDTPTDVTHHPIPSEEDINFILNEVRNYLSCDVEVRRGDVLAAWSGIRPLVTDPKSADTQSISRNHVVDISESGLITIAGGKWTTYRSMAEDTINAAVKTHNLKAGPSRTVGLFLQGGKDWSPTLYIRLVQDYGLESEVAQHLAATYGDKAFEVAKMASVTGKRWPIVGVRLVSEFPYIEAEVKYGIKEYACTAVDMISRRTRLAFLNVQAAEEALPRIVELMGRELNWDDYKKQEQLETARKFLYYEMGYKSRSEQLTDRSEISLLPSDIDRYKKRFHKFDADQKGFITIVDVQRVLESINVQMDENTLHEILNEVDLNKNGQVELNEFLQLMSAIQKGRVSGSRLAILMKTAEENLDRRVPIPVDRSCGGL

Biological target: T1, LZTR1 R810W-FLAG
Assay: IP/MS, LZTR1 R810W-FLAG, U87
In short: (§1)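 Read-out: spectral counts from LC-MS/MS (Orbitrap Fusion) after MaxQuant identification. Variable modifications were Met oxidation, protein N-terminal acetylation and N/Q deamidation.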

Binding result, binds:
B1
B2
B3
B4
B5
B6

Biological target: T2, LZTR1-FLAG
Assay: IP/MS, LZTR1 wild type-FLAG, U87
In short: as §1

Binding result, binds:
B1
B2
B3
B4
B5
B6
